These results are taken from PMC8647080, “Evolution of CPEB4 Dynamics Across its Liquid–Liquid Phase Separation Transition” (The Journal of Physical Chemistry. B, 2021).

This data set concerns the molecule itself. Briefly: CW-EPR line shape of the spin label; X band, 2-45 °C, 10-112 μM, 100 mM NaCl, pH 8; spectra simulated with three components (I monomer, II and III in assemblies).

B1: spin labeled CPEB4NTD-C441S/G320C (domain or fragment, human, UniProt Q17RY0-2 1-448, looked up)
chain: MGDYGFGVLVQSNTGNKSAFPVRFHPHLQPPHHHQNATPSPAAFINNNTAANGSSAGSAWLFPAPATHNIQDEILGSEKAKSQQQEQQDPLEKQQLSPSPGQEAGILPETEKAKSEENQGDNSSENGNGKEKIRIESPVLTGFDYQEATGLGTSTQPLTSSASSLTGFSNWSAAIAPSSSTIINEDASFFHQGGVPAASANNGALLFQNFPHHVSPGFGGSFSPQIGPLSQHHPHHPHFQHHHSQHQQQRRSPASPHPPPFTHRNAAFNQLPHLANNLNKPPSPWSSYQSPSPTPSSSWSPGGGGYGGWGGSQGRDHRRCLNGGITPLNSISPLKKNFASNHIQLQKYARPSSAFAPKSWMEDSLNRADNIFPFPDRPRTFDMHSLESSLIDIMRAENDTIKARTYGRRRGQSSLFPMEDGFLDDGRGDQPLHSGLGSPHSFSHQNGE
modifications: nitroxide spin label on the introduced cysteine 320 (marked * in the paper)
notes: also called C441S/G320C CPEB4NTD mutant; source: E. coli BL21(DE3), purified using the same protocol (Ni2+-NTA, Superdex-200)
Turning to B1, the binding result is recorded as “binds”.
